# B1: BRAAP component of the MPC (Bos taurus) (protein)
# chain 1: TTTLAFKFRHGVIVAADSRATAGAYIASQTVKKVIEINPYLLGTMAGGAADCSFWERLLARQCRIYELRNKERISVAAASKLLANMVYQYKGMGLSMGTMICGWDKRGPGLYYVDSEGNRISGATFSVGSGSVYAYGVMDRGYSYDLEVEEAYDLARRAIYQATYRDAYSGGSVSLYHVREDGWIRVSSDNVADLHDKYSGSTH
# chain 2: TTIMAVQFDGGVVLGADSRTTTGSYIANRVTDKLTPIHDRIFCCRSGSAADTQAVADAVTYQLGFHSIELNEPPLVHTAASLFKEMCYRYREDLMAGIIIAGWDPQEGGQVYSVPMGGMMVRQPFAIGGSGSSYIYGYVDATYREGMTKEECLQFTANALALAMERDGSSGGVIRLAAIAEPGVERQVLLGDQIPKFTIATLPPL
# chain 3: TTIAGVVYKDGIVLGADTRATEGMVVADKNCSKIHFISPNIYCCGAGTAADTDMTTQLISSNLELHSLSTGRLPRVVTANRMLKQMLFRYQGYIGAALVLGGVDVTGPHLYSIYPHGSTDKLPYVTMGSGSLAAMAVFEDKFRPDMEEEEAKKLVSEAIAAGIFNDLGSGSNIDLCVISKSKLDFLRPYSVPNKKGTRFGRYRCEKGTNAVLTEKVTTLEIEVLEETVQTMDTS
# notes: The MPC was isolated from frozen bovine pituitaries; tissue PelFreeze, Inc. (Rogers, Ark.) (supplier of the tissue; the enzyme was purified in house); host or cells: bovine pituitaries
# Experiments:
# Assay in all cases: Kinetic parameters for degradation of synthetic substrates by the BrAAP component
# Type in all cases: biochemical, bovine
# [1] = substrate: CC(C)C[C@H](NC(=O)OCc1ccccc1)C(=O)NCC(=O)N[C@@H](C)C(=O)N[C@@H](CC(C)C)C(=O)N[C@@H](C)C(=O)Nc1ccc(C(=O)O)cc1; settings: other: [S] 1.6-8.0; mean of 2 determinations; from plots of 1/v vs 1/s
# From the text: (§1) A coupled two step reaction in the presence of excess aminopeptidase N (AN) was used for the determination of the BrAAP and SNAAP activities as described previously (Orlowski et al., Biochemistry 32:1563-1572 (1993)). Aminopeptidase N was purified from hog kidneys as described by Pfleiderer, Meth. Enzymol. 19:514-521 (1970) and freed from the contaminating metalloendopeptidase (EC 3.4.24.11) as previously described (Almenoff & Orlowski, Biochemistry 22:590-599 (1983)).
# (§2) The flexibility of the amino acid residue in the P4 position of the inhibitors of the present invention is based on results of substrate specificity studies of the BrAAP component. Activities towards various analogs of the prototypic BrAAP substrate Cbz-Gly-Pro-Ala-Leu-Gly-pAB were determined using the coupled two-step reaction carried out in the presence of AN, as described in Example 4. The BrAAP substrates tested included the following:
# (§3) Data represent mean values for 2 separate determinations. For substrates
# (§4) with MichaelisMenten kinetics, Km and kcat were determined from
# (§5) the regression line fitted to plots of 1/v vs 1/s. Kcat was estimate
# (§6) assuming a molecular mabs of 700 KDa and assuming one active site per
# (§7) molecule. […] The apparent Km for
# (§8) this substrate is taken as the substrate concentration at half of the
# (§9) Vmax observed. kcat for this substrate was calculated assuming
# (§10) Vmax of 300 U/mg and assuming one active site per molecule of MPC.
# [2] = substrate: CC(C)C[C@H](NC(=O)[C@H](C)NC(=O)CNC(=O)CNC(=O)OCc1ccccc1)C(=O)N[C@@H](C)C(=O)Nc1ccc(C(=O)O)cc1; settings: other: [S] 0.8-4.8; sigmoidal kinetics; substrate concentration at half of the Vmax observed
# From the text: as §1, §2, §3, §4, §5, §6, §7, §8, §9, §10
# [3] = substrate: CC(C)C[C@H](NC(=O)[C@H](C)NC(=O)CNC(=O)[C@@H]1CCCN1C(=O)OCc1ccccc1)C(=O)N[C@@H](C)C(=O)Nc1ccc(C(=O)O)cc1; settings: other: [S] 1.6-8.0; mean of 2 determinations; from plots of 1/v vs 1/s
# From the text: as §1, §2, §3, §4, §5, §6, §7, §8, §9, §10
protein,measurement,setting,value
B1,Km,[1],30 mM
same,kcat,[1],24 s⁻¹
same,kcat/Km,[1],820 M⁻¹ s⁻¹
same,Km,[2],2.5 mM
same,kcat,[2],58 s⁻¹
same,kcat/Km,[2],"23,300 s^-1 M^-1"
same,Km,[3],8.7 mM
same,kcat,[3],8.4 s⁻¹
same,kcat/Km,[3],960 M⁻¹ s⁻¹
